Results on 1 molecule are retold here after PMC2764455.

Data set [1] concerns the target T1, bPrP peptide 1 (bovine, UniProt P10279 25-36).
T1 chain: KKRPKPGGGWNT
The data set is described as follows: microchip electrophoresis.

Data set [2] has as its target T2, bPrP peptide 16 (bovine, UniProt P10279 108-119).
T2 chain: GQWNKPSKPKTN
The data set is described as follows: microchip electrophoresis.

With GGAGGAGGAGGA (structured_RNA) [R12], the binding result in data set [1] and in data set [2] was “binds” in each case.
